Legend:
c-Src SH2 = test: SH2 binding enrichment of the phosphorylated peptide, bacterial display (enrichment ratio); higher = better substrate or ligand; peptides without Tyr show the background
Grb2 SH2 = Grb2 SH2 (UniProt P62993); test: as above
SHP2-C SH2 = test: as above
Hck = Hck (UniProt P08631); test: phosphorylation enrichment, bacterial display (enrichment ratio); higher = better substrate or ligand; peptides without Tyr show the background
FGFR1 = FGFR1 (UniProt P11362); test: as above
Chain of FGFR1 (P11362 whole entry, looked up): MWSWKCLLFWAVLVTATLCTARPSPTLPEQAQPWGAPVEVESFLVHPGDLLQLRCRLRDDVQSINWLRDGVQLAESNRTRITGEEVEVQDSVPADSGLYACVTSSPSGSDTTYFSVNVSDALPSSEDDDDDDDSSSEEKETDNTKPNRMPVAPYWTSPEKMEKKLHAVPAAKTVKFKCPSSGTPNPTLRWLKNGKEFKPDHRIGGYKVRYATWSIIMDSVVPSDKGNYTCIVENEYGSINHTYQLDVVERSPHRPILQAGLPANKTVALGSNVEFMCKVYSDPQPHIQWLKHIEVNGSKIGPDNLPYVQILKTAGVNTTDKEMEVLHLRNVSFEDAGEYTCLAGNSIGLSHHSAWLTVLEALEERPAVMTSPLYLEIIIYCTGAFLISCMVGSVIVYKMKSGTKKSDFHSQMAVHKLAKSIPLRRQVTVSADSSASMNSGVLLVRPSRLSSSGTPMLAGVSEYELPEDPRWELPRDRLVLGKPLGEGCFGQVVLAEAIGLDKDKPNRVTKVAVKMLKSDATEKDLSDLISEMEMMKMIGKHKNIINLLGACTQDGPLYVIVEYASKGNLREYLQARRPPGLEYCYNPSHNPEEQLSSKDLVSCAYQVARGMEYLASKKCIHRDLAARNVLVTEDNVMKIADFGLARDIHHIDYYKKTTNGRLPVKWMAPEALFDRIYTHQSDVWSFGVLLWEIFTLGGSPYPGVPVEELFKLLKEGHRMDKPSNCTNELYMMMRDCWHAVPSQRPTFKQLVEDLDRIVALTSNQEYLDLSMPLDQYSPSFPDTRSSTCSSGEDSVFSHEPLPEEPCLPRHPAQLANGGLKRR

Fes = Fes (UniProt P07332); test: as above
c-Src = test: as above
FGFR3 = FGFR3 (UniProt P22607); test: as above
Chain of FGFR3 (P22607 whole entry, looked up): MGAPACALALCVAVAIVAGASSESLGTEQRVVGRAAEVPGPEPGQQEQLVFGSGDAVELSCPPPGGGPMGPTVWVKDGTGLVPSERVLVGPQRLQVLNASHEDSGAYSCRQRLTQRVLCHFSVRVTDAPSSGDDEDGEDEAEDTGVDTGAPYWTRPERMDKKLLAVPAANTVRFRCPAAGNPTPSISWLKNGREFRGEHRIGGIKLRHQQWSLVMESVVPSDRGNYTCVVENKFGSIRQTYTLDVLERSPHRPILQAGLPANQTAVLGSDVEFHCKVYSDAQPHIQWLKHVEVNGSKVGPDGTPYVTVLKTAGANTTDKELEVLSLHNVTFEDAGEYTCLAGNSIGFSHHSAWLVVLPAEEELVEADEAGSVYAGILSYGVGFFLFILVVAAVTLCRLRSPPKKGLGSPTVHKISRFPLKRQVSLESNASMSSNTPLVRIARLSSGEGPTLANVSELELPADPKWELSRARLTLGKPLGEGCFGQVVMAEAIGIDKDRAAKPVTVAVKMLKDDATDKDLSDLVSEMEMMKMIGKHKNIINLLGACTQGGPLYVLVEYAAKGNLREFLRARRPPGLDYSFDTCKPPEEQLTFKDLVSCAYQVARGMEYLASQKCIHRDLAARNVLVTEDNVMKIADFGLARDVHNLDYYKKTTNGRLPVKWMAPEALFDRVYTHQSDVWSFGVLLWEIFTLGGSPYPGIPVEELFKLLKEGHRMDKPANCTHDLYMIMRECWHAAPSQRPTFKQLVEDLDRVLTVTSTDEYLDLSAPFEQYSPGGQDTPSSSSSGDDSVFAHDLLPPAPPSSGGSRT

c-Abl (mouse) = test: as above
Fyn = Fyn (UniProt P06241); test: as above
Chain of Fyn (P06241 whole entry, looked up): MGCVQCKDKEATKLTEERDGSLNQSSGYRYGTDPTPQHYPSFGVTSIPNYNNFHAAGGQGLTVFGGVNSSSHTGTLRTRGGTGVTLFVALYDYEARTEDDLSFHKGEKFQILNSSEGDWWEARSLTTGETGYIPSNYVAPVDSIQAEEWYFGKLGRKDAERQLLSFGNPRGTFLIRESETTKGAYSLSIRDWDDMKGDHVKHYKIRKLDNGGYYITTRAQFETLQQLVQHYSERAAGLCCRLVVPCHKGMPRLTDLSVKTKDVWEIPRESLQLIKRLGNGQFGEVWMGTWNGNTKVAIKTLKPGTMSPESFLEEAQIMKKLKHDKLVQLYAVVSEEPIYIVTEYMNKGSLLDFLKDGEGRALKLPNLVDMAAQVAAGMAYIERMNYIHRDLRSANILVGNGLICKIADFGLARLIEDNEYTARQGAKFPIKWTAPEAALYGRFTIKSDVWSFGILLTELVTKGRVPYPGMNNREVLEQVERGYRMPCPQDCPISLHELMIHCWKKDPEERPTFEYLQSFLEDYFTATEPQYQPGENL

EPHB1 = EPHB1 (UniProt P54762); test: as above
Chain of EPHB1 (P54762 whole entry, looked up): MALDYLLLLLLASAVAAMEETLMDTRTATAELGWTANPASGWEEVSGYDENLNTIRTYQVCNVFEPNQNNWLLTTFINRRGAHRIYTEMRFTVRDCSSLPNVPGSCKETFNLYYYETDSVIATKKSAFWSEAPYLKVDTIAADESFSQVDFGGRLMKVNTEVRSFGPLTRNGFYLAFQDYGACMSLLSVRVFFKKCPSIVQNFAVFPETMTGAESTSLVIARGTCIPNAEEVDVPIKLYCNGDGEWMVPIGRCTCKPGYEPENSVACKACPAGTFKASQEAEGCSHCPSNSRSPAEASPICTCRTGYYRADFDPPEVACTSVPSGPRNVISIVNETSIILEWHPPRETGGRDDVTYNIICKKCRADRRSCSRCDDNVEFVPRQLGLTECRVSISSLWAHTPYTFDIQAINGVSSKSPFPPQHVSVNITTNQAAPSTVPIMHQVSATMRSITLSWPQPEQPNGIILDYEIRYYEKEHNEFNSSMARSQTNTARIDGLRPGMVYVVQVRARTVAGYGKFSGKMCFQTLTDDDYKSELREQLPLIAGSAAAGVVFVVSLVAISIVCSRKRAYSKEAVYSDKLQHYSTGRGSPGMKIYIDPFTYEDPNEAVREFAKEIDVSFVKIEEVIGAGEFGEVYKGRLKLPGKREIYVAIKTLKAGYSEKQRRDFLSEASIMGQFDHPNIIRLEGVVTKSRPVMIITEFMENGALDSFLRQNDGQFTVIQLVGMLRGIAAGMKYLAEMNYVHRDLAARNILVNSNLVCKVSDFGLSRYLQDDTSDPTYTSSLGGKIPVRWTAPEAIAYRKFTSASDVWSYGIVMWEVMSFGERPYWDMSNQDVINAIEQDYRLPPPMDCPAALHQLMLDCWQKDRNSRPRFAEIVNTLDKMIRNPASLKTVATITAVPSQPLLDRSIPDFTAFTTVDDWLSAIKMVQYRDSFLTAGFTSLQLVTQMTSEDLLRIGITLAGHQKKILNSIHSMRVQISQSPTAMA

Fer (mouse) = test: as above
MERTK = MERTK (UniProt Q12866); test: as above
Chain of MERTK (Q12866 whole entry, looked up): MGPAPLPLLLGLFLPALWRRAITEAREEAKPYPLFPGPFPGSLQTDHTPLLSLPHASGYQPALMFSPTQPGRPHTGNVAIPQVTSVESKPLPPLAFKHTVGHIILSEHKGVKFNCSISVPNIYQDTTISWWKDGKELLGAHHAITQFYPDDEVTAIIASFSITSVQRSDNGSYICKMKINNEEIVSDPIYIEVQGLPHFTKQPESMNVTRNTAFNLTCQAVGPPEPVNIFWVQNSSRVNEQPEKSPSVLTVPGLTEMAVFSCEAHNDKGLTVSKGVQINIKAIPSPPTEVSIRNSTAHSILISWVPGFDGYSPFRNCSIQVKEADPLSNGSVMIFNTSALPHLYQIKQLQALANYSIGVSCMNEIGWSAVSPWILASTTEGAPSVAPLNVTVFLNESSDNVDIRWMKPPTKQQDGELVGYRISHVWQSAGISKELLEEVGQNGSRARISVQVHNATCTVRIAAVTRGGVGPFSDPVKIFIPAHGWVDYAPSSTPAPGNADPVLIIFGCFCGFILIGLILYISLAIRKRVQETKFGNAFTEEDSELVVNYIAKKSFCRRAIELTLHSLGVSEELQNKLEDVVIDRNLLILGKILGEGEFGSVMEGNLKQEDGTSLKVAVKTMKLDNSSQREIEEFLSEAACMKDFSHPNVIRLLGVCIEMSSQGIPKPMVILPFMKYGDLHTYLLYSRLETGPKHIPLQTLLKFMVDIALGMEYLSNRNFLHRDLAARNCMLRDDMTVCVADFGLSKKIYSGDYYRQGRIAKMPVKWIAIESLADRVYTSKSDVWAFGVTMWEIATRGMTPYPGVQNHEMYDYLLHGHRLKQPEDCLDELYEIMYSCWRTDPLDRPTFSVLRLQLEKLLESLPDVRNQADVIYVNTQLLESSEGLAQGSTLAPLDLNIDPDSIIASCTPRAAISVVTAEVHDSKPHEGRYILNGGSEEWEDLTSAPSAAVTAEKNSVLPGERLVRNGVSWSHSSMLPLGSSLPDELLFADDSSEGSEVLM

EPHB2 = EPHB2 (UniProt P29323); test: as above
Jak2 = Jak2 (UniProt O60674); test: as above
AncSZ = test: as above
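Throughout, for SH2 binding enrichment of the phosphorylated peptide, bacterial display: peptide library displayed on the E. coli surface as eCPX fusions, selected cells deep-sequenced, score is each peptide's frequency after selection divided by its frequency in the input.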
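Throughout, for phosphorylation enrichment, bacterial display: 11-residue human phosphosite peptides and single-mutation variants displayed on the E. coli surface, counted by deep sequencing, each peptide's frequency after selection divided by its frequency in the unselected input library; frequency after pTyr selection over input frequency; kinase dosed for 20-30% of maximal phosphorylation in three min.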

Chain of Grb2 SH2 (P62993 whole entry, looked up): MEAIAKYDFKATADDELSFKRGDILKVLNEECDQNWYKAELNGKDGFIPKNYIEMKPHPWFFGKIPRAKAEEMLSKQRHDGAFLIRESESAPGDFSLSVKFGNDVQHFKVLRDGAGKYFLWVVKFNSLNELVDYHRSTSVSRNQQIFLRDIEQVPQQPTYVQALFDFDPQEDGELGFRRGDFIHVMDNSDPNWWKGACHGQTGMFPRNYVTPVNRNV
Chain of Hck (P08631 whole entry, looked up): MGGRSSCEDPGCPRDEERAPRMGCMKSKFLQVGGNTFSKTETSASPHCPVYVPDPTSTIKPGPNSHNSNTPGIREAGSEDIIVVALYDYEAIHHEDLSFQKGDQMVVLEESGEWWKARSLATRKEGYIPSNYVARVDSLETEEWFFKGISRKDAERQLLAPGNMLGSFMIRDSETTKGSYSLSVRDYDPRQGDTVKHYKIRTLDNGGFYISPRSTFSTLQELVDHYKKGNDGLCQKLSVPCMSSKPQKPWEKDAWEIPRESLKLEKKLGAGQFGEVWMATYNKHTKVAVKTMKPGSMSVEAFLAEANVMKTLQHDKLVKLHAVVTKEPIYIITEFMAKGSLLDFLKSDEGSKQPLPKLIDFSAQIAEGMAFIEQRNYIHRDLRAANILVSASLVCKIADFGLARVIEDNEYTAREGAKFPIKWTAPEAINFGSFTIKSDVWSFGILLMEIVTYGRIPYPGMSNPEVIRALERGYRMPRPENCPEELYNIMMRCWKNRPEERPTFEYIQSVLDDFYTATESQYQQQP

Sequence | SH2 binding enrichment (c-Src SH2) | SH2 binding enrichment (Grb2 SH2) | SH2 binding enrichment (SHP2-C SH2) | phosphorylation enrichment (Hck) | phosphorylation enrichment (FGFR1) | phosphorylation enrichment (Fes) | phosphorylation enrichment (c-Src) | phosphorylation enrichment (FGFR3) | phosphorylation enrichment (c-Abl (mouse)) | phosphorylation enrichment (Fyn) | phosphorylation enrichment (EPHB1) | phosphorylation enrichment (Fer (mouse)) | phosphorylation enrichment (MERTK) | phosphorylation enrichment (EPHB2) | phosphorylation enrichment (Jak2) | phosphorylation enrichment (AncSZ)
AFLQTYAHEVS [PCDHGA5_Y753_S754A] | 0.608 | 0.755 | 0.903 | 0.506 | 0.621 | 0.985 | 0.474 | 0.617 | 0.693 | 0.49 | 0.455 | 0.521 | 0.503 | 0.565 | 0.786 | 0.896
VIIVLYFSLWK [SLC6A2_Y249_V245I] | 1.3 | 1.95 | 1.74 | 0.369 | 0.462 | 0.631 | 0.386 | 0.548 | 0.693 | 0.375 | 0.363 | 0.471 | 0.354 | 0.371 | 0.702 | 0.774
ISGGGYRARPA [FGB_Y71] | 0.392 | 0.771 | 0.552 | 0.404 | 0.345 | 0.665 | 0.408 | 0.404 | 0.515 | 0.416 | 0.402 | 0.312 | 0.333 | 0.308 | 0.603 | 0.485
RKLASYQSCLL [DHX37_Y1080_R1081Q] | 0.517 | 0.784 | 0.646 | 0.665 | 1.19 | 1.11 | 0.463 | 1.22 | 0.872 | 0.901 | 0.592 | 0.555 | 0.539 | 0.799 | 2.02 | 1.01
LLQKTYNYNVL [SLC4A1_Y553_P548L] | 2.2 | 1.26 | 0.866 | 1.01 | 1.23 | 1.52 | 0.851 | 1.06 | 0.716 | 1.07 | 0.745 | 0.496 | 0.694 | 1.7 | 0.834 | 1.26
LFSNAYLNDLA [ALDH1A1_Y119_YF] | 1.29 | 4.23 | 0.627 | 1 | 0.986 | 1.58 | 1.15 | 1.25 | 1.14 | 1.12 | 0.794 | 0.688 | 0.807 | 0.723 | 1.11 | 1.14
SLQFEYVHYGG [CDC14A_Y591_S589F] | 0.609 | 0.686 | 0.523 | 0.551 | 0.797 | 0.904 | 0.465 | 0.742 | 0.405 | 0.516 | 0.556 | 0.481 | 0.348 | 0.628 | 0.766 | 1.06
GLGGGCGGASG [KRT8_Y54_Y54C] | 0.525 | 0.944 | 0.712 | 0.505 | 0.494 | 0.817 | 0.404 | 0.544 | 0.444 | 0.433 | 0.465 | 0.449 | 0.384 | 0.499 | 0.508 | 0.582
VNTMLYEKFTY [TEK_Y1108_T1106M] | 2.15 | 0.979 | 0.872 | 7.18 | 0.856 | 1.03 | 5.53 | 0.902 | 1.82 | 6.38 | 8.2 | 10.4 | 7.49 | 6.33 | 0.811 | 1.23
NKEAICSGYIR [SMCHD1_Y283_Y283C] | 0.436 | 0.761 | 0.462 | 0.424 | 0.509 | 0.903 | 0.399 | 0.71 | 1.3 | 0.369 | 0.52 | 0.446 | 0.42 | 0.547 | 0.875 | 0.794
SIFKDYFRFNF [PLA2G2D_Y85_YF] | 1.27 | 1.77 | 1.62 | 0.481 | 3.99 | 1.19 | 0.643 | 2.58 | 0.821 | 0.495 | 0.523 | 0.428 | 0.579 | 0.537 | 2.8 | 1.18
STKELYEKYMI | 0.891 | 0.798 | 0.63 | 0.72 | 0.484 | 0.825 | 0.821 | 0.591 | 0.518 | 0.602 | 0.504 | 5.61 | 0.412 | 0.594 | 0.69 | 0.805
ALAHKCHGGGG [HBB_Y146_Y146C] | 0.538 | 0.829 | 0.761 | 0.45 | 0.428 | 0.755 | 0.563 | 0.546 | 0.758 | 0.414 | 0.473 | 0.458 | 0.469 | 0.397 | 0.862 | 0.673
EAIMTYVSSFY [ACTN4_Y260_K255E] | 0.477 | 0.712 | 0.672 | 0.631 | 0.459 | 1.12 | 0.855 | 0.693 | 0.708 | 0.503 | 0.617 | 0.445 | 0.457 | 0.631 | 1.06 | 1.14
DSSIRYLQEIH [FGG_Y135_Y140H] | 0.499 | 0.705 | 0.667 | 0.356 | 0.384 | 0.667 | 0.347 | 0.509 | 0.524 | 0.388 | 0.378 | 0.33 | 0.369 | 0.402 | 0.561 | 0.597
YSKTQYNQVPS [CXADR_Y318] | 0.767 | 0.748 | 0.714 | 0.343 | 0.393 | 0.522 | 0.387 | 0.429 | 0.729 | 0.461 | 0.351 | 0.386 | 0.467 | 0.318 | 0.502 | 0.473
ISDDNYGRIRL [ARCN1_Y310_K309N] | 0.518 | 1 | 0.77 | 1.83 | 0.407 | 0.516 | 0.885 | 0.428 | 0.402 | 0.704 | 0.521 | 1.32 | 0.344 | 1.21 | 0.525 | 0.554
LEITWYPFDVE [RIPOR2_Y316] | 0.801 | 0.961 | 0.884 | 0.691 | 0.679 | 2.12 | 0.704 | 1.55 | 1.25 | 0.751 | 1.21 | 0.827 | 0.461 | 1.05 | 2.3 | 1.49
ALWYIYLHTRS [ENG_Y614_S615L] | 0.521 | 0.641 | 0.607 | 0.384 | 0.62 | 1.39 | 0.331 | 0.821 | 0.733 | 0.432 | 0.542 | 0.514 | 0.352 | 0.476 | 1.09 | 1.1
YSKDNYKRVTG [PANK2_Y405] | 0.374 | 0.793 | 0.597 | 0.344 | 0.456 | 0.611 | 0.44 | 0.4 | 0.52 | 0.387 | 0.362 | 0.494 | 0.488 | 0.44 | 0.6 | 0.675
GGYTWYCDGKK [PROS1_Y266_C265W] | 0.455 | 0.667 | 0.524 | 0.414 | 0.455 | 1.24 | 0.399 | 0.795 | 0.882 | 0.362 | 0.641 | 0.524 | 0.359 | 0.537 | 1.47 | 1.1
PVDVAYRRGFF [PLEC_Y2967_YF] | 0.56 | 0.696 | 0.599 | 0.595 | 0.504 | 0.833 | 0.475 | 0.535 | 0.574 | 0.424 | 0.456 | 0.584 | 0.586 | 0.44 | 0.728 | 0.909
RLRKYYLGKYL [KLB_Y906] | 0.341 | 0.594 | 0.441 | 0.571 | 0.584 | 0.728 | 0.701 | 0.528 | 0.454 | 0.707 | 0.429 | 0.538 | 0.73 | 0.661 | 0.662 | 0.601
